# Data taken from the Immune Epitope Database (IEDB).
# Tests used:
# HLA-C*04:01 = test: IEDB peptide-MHC binding, purified MHC/direct/fluorescence; filed as Kd, often an IC50 or EC50 that approximates it; ≥ and ≤ were set here for values at or beyond the usual limits of such assays; details: source organism: Canis lupus familiaris
# HLA-C*07:02 = test: as above; details: source organism: Canis lupus familiaris
# HLA-A*01:01 = test: as above
# HLA-A*02:01 = test: as above
# HLA-A*03:01 = test: as above
# HLA-A*11:01 = test: as above
# HLA-A*26:01 [1] = test: as above; details: source organism: Influenza A virus(A/swine/Shandong/fNY/2003(H9N2))
# HLA-A*31:01 [2] = test: as above
# HLA-A*69:01 = test: as above
# HLA-B*07:02 = test: as above
# HLA-B*15:01 = test: as above
# HLA-B*15:09 [3] = test: as above
# HLA-B*18:01 = test: as above
# HLA-B*27:05 = test: as above
# HLA-B*38:01 = test: as above
# HLA-B*39:01 [4] = test: as above
# HLA-B*40:01 = test: as above
# HLA-B*46:01 = test: as above
# HLA-B*48:01 = test: as above
# HLA-B*51:01 = test: as above
# HLA-B*57:01 [5] = test: as above
# HLA-B*58:01 = test: as above
# HLA-B*08:01 [6] = test: IEDB peptide-MHC binding, purified MHC/competitive/fluorescence; filed as Kd, often an IC50 or EC50 that approximates it; ≥ and ≤ were set here for values at or beyond the usual limits of such assays
# HLA-B*15:17 [7] = test: as above
# HLA-A*24:02 = test: IEDB peptide-MHC binding, purified MHC/direct/fluorescence; filed as Kd, often an IC50 or EC50 that approximates it; ≥ and ≤ were set here for values at or beyond the usual limits of such assays; details: source organism: Influenza A virus (A/G.H/HK/793.1/02 (H5N1))
# HLA-B*08:01 [8] = test: as above
# HLA-B*44:02 = test: as above; details: source organism: Influenza A virus (A/G.H/HK/793.1/02 (H5N1))
# HLA-B*15:17 [9] = test: as above
# HLA-A*02:03 = test: IEDB peptide-MHC binding, purified MHC/competitive/fluorescence; filed as Kd, often an IC50 or EC50 that approximates it; ≥ and ≤ were set here for values at or beyond the usual limits of such assays; details: source organism: Influenza A virus (A/swine/Italy/1521/98(H1N2))
# HLA-A*23:01 = test: IEDB peptide-MHC binding, purified MHC/direct/fluorescence; filed as Kd, often an IC50 or EC50 that approximates it; ≥ and ≤ were set here for values at or beyond the usual limits of such assays; details: source organism: Marburg virus - Musoke, Kenya, 1980
# HLA-A*24:03 = test: as above; details: source organism: Marburg virus - Musoke, Kenya, 1980
# HLA-B*08:02 = test: as above; details: source organism: Ravn virus - Ravn, Kenya, 1987
# HLA-C*08:02 = test: as above; details: source organism: Orthomarburgvirus marburgense
# HLA-A*02:06 = test: IEDB peptide-MHC binding, purified MHC/competitive/fluorescence; filed as Kd, often an IC50 or EC50 that approximates it; ≥ and ≤ were set here for values at or beyond the usual limits of such assays; details: source organism: Orthomarburgvirus marburgense
# HLA-A*26:01 [10] = test: as above; details: source organism: Orthomarburgvirus marburgense
# HLA-A*26:02 = test: as above; details: source organism: Orthomarburgvirus marburgense
# HLA-A*68:02 = test: as above; details: source organism: Orthomarburgvirus marburgense
# HLA-B*15:09 [11] = test: as above
# HLA-B*39:01 [12] = test: as above; details: source organism: Orthomarburgvirus marburgense
# HLA-B*57:01 [13] = test: as above; details: source organism: Orthomarburgvirus marburgense
# HLA-A*30:01 = test: as above; details: source organism: Vibrio cholerae O1 biovar El Tor str. N16961
# HLA-A*31:01 [14] = test: as above; details: source organism: Vibrio cholerae O1 biovar El Tor str. N16961
# [15] = source organism: Influenza A virus (A/Wisconsin/4755/1994(H1N1))
# [16] = source organism: Influenza A virus(A/swine/Shandong/fNY/2003(H9N2))
# [17] = source organism: Influenza A virus H3N2
# [18] = source organism: Influenza A virus (A/G.H/HK/793.1/02 (H5N1))
# [19] = source organism: Influenza A virus (A/swine/Korea/S190/2004(H9N2))
# [20] = source organism: Marburg virus - Musoke, Kenya, 1980
# [21] = source organism: Orthomarburgvirus marburgense
# [22] = source organism: Vibrio cholerae
# [23] = source organism: Vibrio cholerae V52
# [24] = source organism: Vibrio cholerae O1 biovar El Tor str. N16961
sequence,measurement,setting,value
HYNAFHWAI,Kd,HLA-C*04:01,≥ 20 µM
same,Kd,HLA-C*07:02,0.047 µM
ITKEKKEEL,Kd,HLA-A*01:01; [15],≥ 20 µM
same,Kd,HLA-A*02:01; [15],≥ 20 µM
same,Kd,HLA-A*03:01; [15],≥ 20 µM
same,Kd,HLA-A*11:01; [15],≥ 20 µM
same,Kd,HLA-A*26:01 [1],≥ 20 µM
same,Kd,HLA-A*31:01 [2]; [15],≥ 20 µM
same,Kd,HLA-A*69:01; [15],≥ 20 µM
same,Kd,HLA-B*07:02; [15],≥ 20 µM
same,Kd,HLA-B*15:01; [15],≥ 20 µM
same,Kd,HLA-B*15:09 [3]; [16],≥ 20 µM
same,Kd,HLA-B*18:01; [15],≥ 20 µM
same,Kd,HLA-B*27:05; [15],≥ 20 µM
same,Kd,HLA-B*38:01; [16],≥ 20 µM
same,Kd,HLA-B*39:01 [4]; [16],≥ 20 µM
same,Kd,HLA-B*40:01; [15],≥ 20 µM
same,Kd,HLA-B*46:01; [15],≥ 20 µM
same,Kd,HLA-B*48:01; [15],≥ 20 µM
same,Kd,HLA-B*51:01; [15],≥ 20 µM
same,Kd,HLA-B*57:01 [5]; [15],≥ 20 µM
same,Kd,HLA-B*58:01; [15],≥ 20 µM
same,Kd,HLA-B*08:01 [6]; [17],4.81 µM
same,Kd,HLA-B*15:17 [7]; [17],≥ 20 µM
RRKTNLYGF,Kd,HLA-A*01:01; [18],≥ 20 µM
same,Kd,HLA-A*02:01; [18],≥ 20 µM
same,Kd,HLA-A*03:01; [18],≥ 20 µM
same,Kd,HLA-A*11:01; [18],≥ 20 µM
same,Kd,HLA-A*24:02,≥ 20 µM
same,Kd,HLA-B*07:02; [18],≥ 20 µM
same,Kd,HLA-B*08:01 [8]; [18],≥ 20 µM
same,Kd,HLA-B*15:01; [18],≥ 20 µM
same,Kd,HLA-B*15:09 [3]; source organism: Influenza A virus (A/Taiwan/2/2006(H1N1)),≥ 20 µM
same,Kd,HLA-B*18:01; [18],≥ 20 µM
same,Kd,HLA-B*27:05; source organism: Influenza A virus (A/Puerto Rico/8/34/Mount Sinai(H1N1)),0.021 µM
same,Kd,HLA-B*40:01; [18],≥ 20 µM
same,Kd,HLA-B*44:02,≥ 20 µM
same,Kd,HLA-B*46:01; [18],≥ 20 µM
same,Kd,HLA-B*58:01; [18],≥ 20 µM
WIPKRNRSI,Kd,HLA-A*01:01; [19],≥ 20 µM
same,Kd,HLA-A*02:01; [19],≥ 20 µM
same,Kd,HLA-A*03:01; [19],≥ 20 µM
same,Kd,HLA-A*11:01; [19],≥ 20 µM
same,Kd,HLA-A*31:01 [2]; [19],≥ 20 µM
same,Kd,HLA-A*69:01; [19],≥ 20 µM
same,Kd,HLA-B*07:02; [19],0.644 µM
same,Kd,HLA-B*08:01 [8]; [17],0.018 µM
same,Kd,HLA-B*15:01; [19],≥ 20 µM
same,Kd,HLA-B*15:09 [3]; [17],≥ 20 µM
same,Kd,HLA-B*15:17 [9]; [19],≥ 20 µM
same,Kd,HLA-B*18:01; [19],≥ 20 µM
same,Kd,HLA-B*27:05; [19],≥ 20 µM
same,Kd,HLA-B*38:01; [17],≥ 20 µM
same,Kd,HLA-B*39:01 [4]; [17],≥ 20 µM
same,Kd,HLA-B*40:01; [19],≥ 20 µM
same,Kd,HLA-B*46:01; [19],≥ 20 µM
same,Kd,HLA-B*48:01; [19],≥ 20 µM
same,Kd,HLA-B*57:01 [5]; [19],≥ 20 µM
same,Kd,HLA-B*58:01; [19],≥ 20 µM
same,Kd,HLA-A*02:03,≥ 20 µM
YLAPSYRNF,Kd,HLA-A*01:01; [20],≥ 20 µM
same,Kd,HLA-A*11:01; [20],≥ 20 µM
same,Kd,HLA-A*23:01,0.023 µM
same,Kd,HLA-A*24:03,0.0165 µM
same,Kd,HLA-A*31:01 [2]; [20],≥ 20 µM
same,Kd,HLA-A*69:01; [20],≥ 20 µM
same,Kd,HLA-B*07:02; [20],≥ 20 µM
same,Kd,HLA-B*08:02,≥ 20 µM
same,Kd,HLA-B*18:01; [20],≥ 20 µM
same,Kd,"HLA-B*58:01; source organism: Ravn virus - Ravn, Kenya, 1987",0.43 µM
same,Kd,HLA-C*08:02,≥ 20 µM
same,Kd,HLA-A*02:06,≥ 20 µM
same,Kd,HLA-A*26:01 [10],5.13 µM
same,Kd,HLA-A*26:02,0.0042 µM
same,Kd,HLA-A*68:02,3.22 µM
same,Kd,HLA-B*15:09 [11]; [21],≥ 20 µM
same,Kd,HLA-B*15:17 [7]; [21],3.98 µM
same,Kd,HLA-B*39:01 [12],≥ 20 µM
same,Kd,HLA-B*57:01 [13],≥ 20 µM
YLKKGRLSL,Kd,HLA-A*01:01; [22],≥ 20 µM
same,Kd,HLA-A*03:01; [22],≥ 20 µM
same,Kd,HLA-A*11:01; [22],≥ 20 µM
same,Kd,HLA-A*69:01; [22],≥ 20 µM
same,Kd,HLA-B*07:02; [22],0.123 µM
same,Kd,HLA-B*15:01; [23],0.053 µM
same,Kd,HLA-B*15:17 [9]; [22],≥ 20 µM
same,Kd,HLA-B*18:01; [22],≥ 20 µM
same,Kd,HLA-B*27:05; [22],≥ 20 µM
same,Kd,HLA-B*39:01 [4]; [23],≥ 20 µM
same,Kd,HLA-B*40:01; [22],≥ 20 µM
same,Kd,HLA-B*46:01; [22],5.06 µM
same,Kd,HLA-B*48:01; [22],≥ 20 µM
same,Kd,HLA-B*51:01; [22],≥ 20 µM
same,Kd,HLA-B*57:01 [5]; [22],≥ 20 µM
same,Kd,HLA-B*58:01; [22],≥ 20 µM
same,Kd,HLA-A*30:01,1.49 µM
same,Kd,HLA-A*31:01 [14],≥ 20 µM
same,Kd,HLA-B*08:01 [6]; [24],0.0532 µM
same,Kd,HLA-B*15:09 [11]; [24],≥ 20 µM
